# Results: patent US20130136743A1 (LABORATOIRE FRANCAIS DU FRACTIONNEMENT ET DES …, published 2013)
# Numbering of substitutions follows the chain as printed. In names and notes the source's numbering stands.
# T1: AMHRII receptor expressed on cells (cov434-AMHRII, Asc 1, META 2815) (human, UniProt Q16671 18-573)
# T1 sequence (looked up): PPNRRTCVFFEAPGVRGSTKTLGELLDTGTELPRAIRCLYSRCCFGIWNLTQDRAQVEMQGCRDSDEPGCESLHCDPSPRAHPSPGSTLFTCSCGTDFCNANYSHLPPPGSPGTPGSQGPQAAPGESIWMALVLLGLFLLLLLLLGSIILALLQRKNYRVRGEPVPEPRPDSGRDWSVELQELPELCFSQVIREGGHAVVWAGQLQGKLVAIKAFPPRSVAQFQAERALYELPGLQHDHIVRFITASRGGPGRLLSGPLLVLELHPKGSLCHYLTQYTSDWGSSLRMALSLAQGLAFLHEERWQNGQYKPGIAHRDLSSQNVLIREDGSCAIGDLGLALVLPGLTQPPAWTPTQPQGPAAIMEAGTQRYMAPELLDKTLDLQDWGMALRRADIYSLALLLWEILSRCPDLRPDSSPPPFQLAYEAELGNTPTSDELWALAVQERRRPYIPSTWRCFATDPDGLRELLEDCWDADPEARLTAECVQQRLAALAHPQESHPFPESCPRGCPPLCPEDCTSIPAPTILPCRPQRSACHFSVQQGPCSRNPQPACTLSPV
# T2: Epitope peptide GGGGNLTQDRAQVEMQGSR
# T2 peptide: GGGGNLTQDRAQVEMQGSR
# B1: 4C_35 (mutated huLFB112 phage-scFv clone) (scFv, part only; not given: scFv linker and phage partner, V domains shown, not shown: another chain or arm of the molecule; large carriers; small tags and cut ends)
# VH: QVQLVQSGAEVKKPGASVKVSCKASGYTFTSYHIHWVRQAPGQRPEWMGWIYPGDDSTKYSQKFQGRVTITRDTSASTAYMELSSLRSEDTAVYYCTRGDRFAYWGQGTLVTVSS
# VL: DIQMTQSPSTLSASVGDRVTITCRASSSVRYIAWYQQKPGKAPKLLIYSTSSLKSGVPSRFSGSGSGTEFTLTISSLQPDDFATYYCLQWSSYPWTFGGGTKVEIK
# B2: mutated humanized 12G4 antibody 3C-23K produced in CHO (antibody, human IgG1, kappa, V domains shown)
# VH: B1 VH with Q3R, P45L
# VL: DIQMTQSPSTLSASVGDRVTITCRASSSVRYIAWYQQKPGKAPKLLTYPTSSLKSGVPSRFSGSGSGTEFTLTISSLQPDDFATYYCLQWSSYPWTFGGGTKVEIKR
# notes: also called 3C_23K CHO; 3C-23K-CHO
# B3: 3C_23 (mutated huLFB112 phage-scFv clone) (scFv, part only; not given: scFv linker and phage partner, V domains shown, not shown: another chain or arm of the molecule; large carriers; small tags and cut ends)
# VH: B1 VH with Q3R, P45L
# VL: B1 VL with I47T, S49P, K54E
# B4: 5B_81 (mutated huLFB112 phage-scFv clone) (scFv, part only; not given: scFv linker and phage partner, V domains shown, not shown: another chain or arm of the molecule; large carriers; small tags and cut ends)
# VH: B1 VH
# VL: B1 VL with K54E
# B5: 4F_196 (mutated huLFB112 phage-scFv clone) (scFv, part only; not given: scFv linker and phage partner, V domains shown, not shown: another chain or arm of the molecule; large carriers; small tags and cut ends)
# VH: B1 VH with Q3E, P45L, Q62R, E89D
# VL: B1 VL with K54E
# B6: unmutated humanized 12G4 monoclonal antibody (antibody, human IgG1, kappa, V domains shown)
# VH: B1 VH with P45L
# VL: B2 VL with T47I, P49S, K54E
# notes: Variable regions without leader joined to the constant regions; also called huLFB112; 632 07 107 Anti AMHRII hum 1st
# B7: mutated humanized 12G4 antibody 6B-78 produced in CHO (antibody, human IgG1, kappa, V domains shown)
# VH: B1 VH with P45L
# VL: B2 VL with T47I, P49S
# notes: also called 6B_78 CHO
# B8: 4E_153 (mutated huLFB112 phage-scFv clone) (scFv, V domains shown)
# VH: B1 VH with P45L, D56N, I70N, F102S
# VL: B1 VL with K54E
# notes: scFv on M13 phage, tested as culture supernatant; not shown: The 15-residue scFv peptide linker (positions 116-130 of the scFv numbering) and the M13 phage display partner
# B9: 4D_91 (mutated huLFB112 phage-scFv clone) (scFv, V domains shown)
# VH: B1 VH with Q1E, V11A, P45L
# VL: B1 VL with K54E
# notes: scFv on M13 phage, tested as culture supernatant; Q1E: TAG codon suppressed, translated to E in E. coli XL1-blue; not shown: The 15-residue scFv peptide linker (positions 116-130 of the scFv numbering) and the M13 phage display partner
# B10: 5A_28 (mutated huLFB112 phage-scFv clone) (scFv, V domains shown)
# VH: B1 VH with P45L
# VL: B1 VL with Y48H, S49P, K54E
# notes: scFv on M13 phage, tested as culture supernatant; not shown: The 15-residue scFv linker (positions 116-130 of the scFv numbering) and the M13 phage display partner
# B11: 4F_169 (mutated huLFB112 phage-scFv clone) (scFv, V domains shown)
# VH: B1 VH with Q6E, P45L, T58A
# VL: B1 VL with K54E
# notes: scFv on M13 phage, tested as culture supernatant; Q6E: TAG codon suppressed, translated to E in E. coli XL1-blue; not shown: The 15-residue scFv peptide linker (positions 116-130 of the scFv numbering) and the M13 phage display partner
# B12: 6A_80 (mutated huLFB112 phage-scFv clone) (scFv, V domains shown)
# VH: B1 VH with A24V, P45L, Q62E
# VL: B1 VL with K54E
# notes: scFv on M13 phage, tested as culture supernatant; Q62E: TAG codon suppressed, translated to E in E. coli XL1-blue; not shown: The 15-residue scFv linker (positions 116-130 of the scFv numbering) and the M13 phage display partner
# B13: 6B_14 (mutated huLFB112 phage-scFv clone) (scFv, V domains shown)
# VH: B1 VH with S31G, Q39E, P45L
# VL: B1 VL with K54E
# notes: scFv on M13 phage, tested as culture supernatant; Q39E: TAG codon suppressed, translated to E in E. coli XL1-blue; not shown: The 15-residue scFv peptide linker (positions 116-130 of the scFv numbering) and the M13 phage display partner
# B14: 6B_76 (mutated huLFB112 phage-scFv clone) (scFv, V domains shown)
# VH: B1 VH with A40V, P45L
# VL: B1 VL with S49P, K54E
# notes: as for B10
# B15: mutated humanized 12G4 antibody 3C-23 produced in CHO (antibody, human IgG1, kappa, V domains shown)
# VH: B1 VH with Q3R, P45L
# VL: B2 VL with K54E
# notes: also called 3C_23 CHO
# B16: 6B_87 (mutated huLFB112 phage-scFv clone) (scFv, V domains shown)
# VH: B1 VH with Q1E, A24V, P45L
# VL: B1 VL with K54E
# notes: as for B9
# B17: 5B_18 (mutated huLFB112 phage-scFv clone) (scFv, V domains shown)
# VH: B1 VH with Q3E, A9T, P45L, A103T
# VL: B1 VL with K54E
# notes: scFv on M13 phage, tested as culture supernatant; Q3E: TAG codon suppressed, translated to E in E. coli XL1-blue; not shown: The 15-residue scFv peptide linker (positions 116-130 of the scFv numbering) and the M13 phage display partner
# B18: 3D_74 (mutated huLFB112 phage-scFv clone) (scFv, V domains shown)
# VH: B1 VH with P45L
# VL: B1 VL with S28P, K54E
# notes: as for B8
# B19: 5A_66 (mutated huLFB112 phage-scFv clone) (scFv, V domains shown)
# VH: B1 VH with P45L, V68M
# VL: B1 VL with K54E, F82S
# notes: as for B8
# Assays:
# [1] = target: T3, AMHR-II/Fc fusion protein (human, UniProt Q16671 18-149, limits assumed); test: phage-scFv ELISA on AMHRII-Fc; mean of at least four values, standard deviation in parentheses
# T3 construct: also called AMHR-II recombinant receptor expressed in the form of fusion protein with a region Fc; recombinant target; not shown: Fc region
# Method: The secondary screening consists of analysing the clones selected at the end of the primary screening individually. For this, the 113 unique mutated clones were transferred to a culture plate (96 well-1.2 ml).
# After production of the phage particles, the culture supernatants containing the phages-scFv were used for carrying out an ELISA binding assay. The binding of the mutated clones was evaluated at two dilutions (½ and ¼ of the supernatants containing the scFv-phages). The murine clones (mLFB112) and humanized clones (huLFB112) constructed under the scFv-phages format were used as references on each of the assay plates. Each of the mutated clones was tested at least twice.
# [2] = target: T1, AMHRII receptor expressed on cells …; test: cell-based or functional assay
# [3] = target: T3, AMHR-II/Fc fusion protein; test: SPR, BIAcore X100; ratio against the chimeric 12G4
# Method: (§1) The affinity of the antibodies for their antigen, AMHR-II, is determined by the SPR (Surface Plasmon Resonance) technique on BIACore X100 (BIACore, GE Healthcare). The AMHR-II recombinant receptor, expressed in the form of fusion protein with a region Fc, is immobilized by covalent coupling between its amine functions and the carboxyl groups of dextran activated in succinimide esters, present on the surface of the type CM5 sensor chip. The COOH groups of the sensor chip are activated for 7 minutes with EDC/NHS mixture (0.1 M of N-hydroxysuccinimide and 0.1 M of 3-(N,N-dimethylamino)propyl-N-ethylcarbodiimide) at a flow of 10 μl/min then the AMHR-II/Fc fusion protein, diluted to 5 μg/ml in 10 mM sodium acetate buffer, pH 4.0, is injected at […] on track 2 of the sensor chip so as to reach 300 RU. The ester groups that have not reacted with the amines of the fusion protein are deactivated by injection of a solution of ethanolamine-HCl 1M, pH 8.5 for 7 min at a flow of 10 μl:min. Track 1, serving as negative control, was activated and deactivated like track 2.
# (§2) All the measurements are carried out at 25° C. The antibodies to be analysed are diluted in HBS-EP running buffer (BIACore, GE Healthcare) at concentrations from 6.25 to 3333 nM and injected on the sensor chip for 2 min at a flow of 30 μl/min. The dissociation step is monitored for 10 min and then the surface is regenerated by injection of 10 mM glycine buffer, pH 1.5 for 30 s at 10 μl/min.
# (§3) The sensorgrams obtained are analysed using the 1:2 kinetic model of the BIAevaluation 3.1 software.
# [4] = target: T3, AMHR-II/Fc fusion protein; test: SPR, BIAcore X100; AMHR-II/Fc immobilised on CM5 chip, antibody injected; 25 C
# Method: as §1, §2, §3
# [5] = target: T1, AMHRII receptor expressed on cells …; test: cell-based or functional assay; remark: listed apart in the source
# [6] = target: T1, AMHRII receptor expressed on cells …; test: cell-based or functional assay; remark: listed apart in the source
# [7] = target: T2, Epitope peptide GGGGNLTQDRAQVEMQGSR; test: method not stated; Example 2, heading names cov434-AMHR-II cells and the epitope peptide
Binder,Ratio AB invention/chimeric 12G4 [1],Ratio AB invention/humanized 12G4 [1],also measured
B1,1.9,4.3,–
B2,–,–,"EC50, ADCC on META 2815 cells [2]: 0.467 µg/mL; KD chimeric/KD mutated [3]: 8.5; Kd [4]: 25 nM; koff [4]: 0.001 s⁻¹; kon [4]: 41000 M⁻¹ s⁻¹"
B3,1.2,2.6,–
B4,1.6,3.5,–
B5,1.5,3,–
B6,–,–,"% of lysis of ASC1 cells (ADCC with NK cells, LDH release) at 0.001 ng/ml antibody [5]: 0%; % of lysis of ASC1 cells (ADCC with NK cells, LDH release) at 0.005 ng/ml antibody [5]: 18%; % of lysis of ASC1 cells (ADCC with NK cells, LDH release) at 0.05 ng/ml antibody [5]: 2%; % of lysis of ASC1 cells (ADCC with NK cells, LDH release) at 0.5 ng/ml antibody [5]: 0%; % of lysis of ASC1 cells (ADCC with NK cells, LDH release) at 5 ng/ml antibody [5]: 7%; % of lysis of ASC1 cells (ADCC with NK cells, LDH release) at 50 ng/ml antibody [5]: 24%; % of lysis of ASC1 cells (ADCC with NK cells, LDH release) at 500 ng/ml antibody [5]: 50%; % of lysis of ASC1 cells (ADCC with NK cells, LDH release) at 5000 ng/ml antibody [5]: 50%; EC50 (ng/ml), ADCC on ASC1 cells [6]: 52.4 ng/mL; Emax (% of lysis), ADCC on ASC1 cells [6]: 52.4 % of lysis; Kd [7]: 5260 nM; koff [7]: 0.00962 s⁻¹; kon [7]: 1830 M⁻¹ s⁻¹"
B7,–,–,KD chimeric/KD mutated [3]: 2.6; Kd [4]: 81 nM; koff [4]: 0.0012 s⁻¹; kon [4]: 15000 M⁻¹ s⁻¹
B8,1,2,–
B9,0.8,1.7,–
B10,0.8,1.6,–
B11,1,2,–
B12,1.3,1.5,–
B13,1.1,2.6,–
B14,0.8,1.7,–
B15,–,–,KD chimeric/KD mutated [3]: 2.5; Kd [4]: 86 nM; koff [4]: 0.0043 s⁻¹; kon [4]: 50000 M⁻¹ s⁻¹
B16,1,2.1,–
B17,0.9,1.8,–
B18,0.8,2,–
B19,1.1,2.2,–
